Reference: patent publication US20090118185A1 (UNIVERSITY OF ROCHESTER, published 2009)

Assays:
[1] = molecular target: T1, 336(P1′-P3′)562 factor VIIIa mutant
T1 chain 1: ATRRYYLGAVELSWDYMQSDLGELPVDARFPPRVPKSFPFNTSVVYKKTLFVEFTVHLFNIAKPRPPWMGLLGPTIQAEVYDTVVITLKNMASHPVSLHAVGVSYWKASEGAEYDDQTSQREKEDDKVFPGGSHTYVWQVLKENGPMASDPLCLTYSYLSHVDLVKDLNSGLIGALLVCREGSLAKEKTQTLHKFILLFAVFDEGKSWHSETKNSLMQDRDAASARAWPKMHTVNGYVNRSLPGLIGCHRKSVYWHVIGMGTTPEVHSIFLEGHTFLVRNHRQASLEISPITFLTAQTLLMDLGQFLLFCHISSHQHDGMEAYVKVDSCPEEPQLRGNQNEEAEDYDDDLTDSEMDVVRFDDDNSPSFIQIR
T1 chain 2: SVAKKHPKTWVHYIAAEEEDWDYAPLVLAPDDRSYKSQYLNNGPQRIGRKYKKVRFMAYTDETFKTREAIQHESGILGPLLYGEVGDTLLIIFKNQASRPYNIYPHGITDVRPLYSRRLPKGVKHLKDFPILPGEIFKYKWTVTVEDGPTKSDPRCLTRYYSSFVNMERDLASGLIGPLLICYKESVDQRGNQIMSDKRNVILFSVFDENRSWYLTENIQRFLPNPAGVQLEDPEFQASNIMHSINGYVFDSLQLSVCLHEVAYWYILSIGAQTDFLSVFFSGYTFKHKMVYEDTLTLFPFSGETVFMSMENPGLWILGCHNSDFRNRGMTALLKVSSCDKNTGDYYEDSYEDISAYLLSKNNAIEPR
T1 chain 3: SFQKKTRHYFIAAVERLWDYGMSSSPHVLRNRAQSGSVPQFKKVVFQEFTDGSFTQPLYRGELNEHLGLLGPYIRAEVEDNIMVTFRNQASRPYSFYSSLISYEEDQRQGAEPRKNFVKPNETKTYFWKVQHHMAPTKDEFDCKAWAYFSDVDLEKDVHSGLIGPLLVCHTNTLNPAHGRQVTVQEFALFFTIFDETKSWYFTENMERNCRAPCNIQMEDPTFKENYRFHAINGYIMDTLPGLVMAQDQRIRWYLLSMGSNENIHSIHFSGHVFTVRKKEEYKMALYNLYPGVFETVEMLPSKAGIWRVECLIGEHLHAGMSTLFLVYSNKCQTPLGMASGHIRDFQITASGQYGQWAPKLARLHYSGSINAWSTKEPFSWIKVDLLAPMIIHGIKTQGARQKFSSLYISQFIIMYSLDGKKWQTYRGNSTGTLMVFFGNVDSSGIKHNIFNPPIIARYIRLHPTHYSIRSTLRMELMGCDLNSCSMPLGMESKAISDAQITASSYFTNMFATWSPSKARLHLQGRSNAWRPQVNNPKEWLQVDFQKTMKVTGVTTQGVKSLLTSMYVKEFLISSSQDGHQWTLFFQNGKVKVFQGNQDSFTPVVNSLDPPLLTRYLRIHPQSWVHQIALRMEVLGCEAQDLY

[2] = molecular target: T2, 562(P4-P2)336 factor VIIIa mutant
T2 chain 1: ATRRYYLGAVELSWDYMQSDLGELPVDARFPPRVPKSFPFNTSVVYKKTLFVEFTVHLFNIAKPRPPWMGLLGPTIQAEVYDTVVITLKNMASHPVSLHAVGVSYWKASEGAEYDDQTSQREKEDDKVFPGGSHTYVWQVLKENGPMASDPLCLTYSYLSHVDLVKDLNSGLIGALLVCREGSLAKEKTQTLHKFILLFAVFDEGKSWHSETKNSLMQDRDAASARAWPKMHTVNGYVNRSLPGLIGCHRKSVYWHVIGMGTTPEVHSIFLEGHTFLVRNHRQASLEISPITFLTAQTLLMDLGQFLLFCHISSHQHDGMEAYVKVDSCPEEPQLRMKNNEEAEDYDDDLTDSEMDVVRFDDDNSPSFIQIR
T2 chain 2: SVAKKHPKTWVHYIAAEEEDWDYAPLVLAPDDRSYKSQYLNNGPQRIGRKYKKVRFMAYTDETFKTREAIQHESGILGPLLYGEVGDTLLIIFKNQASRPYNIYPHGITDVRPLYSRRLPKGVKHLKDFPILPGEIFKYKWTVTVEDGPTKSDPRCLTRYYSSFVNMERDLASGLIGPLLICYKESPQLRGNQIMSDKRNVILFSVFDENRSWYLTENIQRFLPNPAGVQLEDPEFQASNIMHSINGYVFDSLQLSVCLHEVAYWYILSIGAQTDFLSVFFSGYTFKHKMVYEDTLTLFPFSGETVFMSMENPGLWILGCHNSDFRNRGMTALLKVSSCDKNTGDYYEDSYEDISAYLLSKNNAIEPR
T2 chain 3: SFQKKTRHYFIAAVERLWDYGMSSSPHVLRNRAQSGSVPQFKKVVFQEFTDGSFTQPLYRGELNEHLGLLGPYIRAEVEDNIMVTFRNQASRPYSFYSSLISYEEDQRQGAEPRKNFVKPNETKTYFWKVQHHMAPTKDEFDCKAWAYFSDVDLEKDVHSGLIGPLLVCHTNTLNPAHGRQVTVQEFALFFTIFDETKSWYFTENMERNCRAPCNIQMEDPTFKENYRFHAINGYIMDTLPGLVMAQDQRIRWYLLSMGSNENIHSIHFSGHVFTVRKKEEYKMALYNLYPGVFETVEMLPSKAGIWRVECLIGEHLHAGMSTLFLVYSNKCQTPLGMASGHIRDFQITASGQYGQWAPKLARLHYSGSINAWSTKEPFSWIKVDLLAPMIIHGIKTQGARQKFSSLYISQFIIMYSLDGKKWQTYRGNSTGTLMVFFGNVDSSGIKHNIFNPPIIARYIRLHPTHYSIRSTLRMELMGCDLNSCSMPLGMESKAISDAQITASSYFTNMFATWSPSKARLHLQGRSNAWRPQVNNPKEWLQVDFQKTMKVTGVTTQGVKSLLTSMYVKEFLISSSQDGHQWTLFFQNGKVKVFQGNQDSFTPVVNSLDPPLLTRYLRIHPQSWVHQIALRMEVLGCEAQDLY

B1: human activated protein C (protein)
chain 1: ANSFLEELRHSSLERECIEEICDFEEAKEIFQNVDDTLAFWSKHVDGDQCLVLPLEHPCASLCCGHGTCIDGIGSFSCDCRSGWEGRFCQREVSFLNCSLDNGGCTHYCLEEVGWRRCSCAPGYKLGDDLLQCHPAVKFPCGRPWKRMEKKRSHL
chain 2: LIDGKMTRRGDSPWQVVLLDSKKKLACGAVLIHPSWVLTAAHCMDESKKLLVRLGEYDLRRWEKWELDLDIKEVFVHPNYSKSTTDNDIALLHLAQPATLSQTIVPICLPDSGLAERELNQAGQETLVTGWGYHSSREKEAKRNRTFVLNFIKIPVVPHNECSEVMSNMVSENMLCAGILGDRQDACEGDSGGPMVASFHGTWFLVGLVSWGEGCGLLHNYGVYTKVSRYLDWIHGHIRDKEAPQKSWAP
[1]
  A1 Cleavage (nM A1/min/nM APC) (nM A1/min/nM APC): 1.1
  A2 Cleavage (nM A2/min/nM APC) (nM A2/min/nM APC): 0.3
  fold reduction of cleavage rate at the A1 site compared with WT: reduced ˜16 and ˜9-fold, respectively, as compared with the WT protein
[2]
  A1 Cleavage (nM A1/min/nM APC) (nM A1/min/nM APC): 7.4
  A2 Cleavage (nM A2/min/nM APC) (nM A2/min/nM APC): 0.7
